Laboratory results taken from publication PMC7083068 (Journal of thrombosis and haemostasis : JTH, 2019).

Biological target: human recombinant FVIII (Advate) (human, UniProt P00451 20-2351)
Assay: ELISA

Chain of human recombinant FVIII (Advate) (P00451 20-2351): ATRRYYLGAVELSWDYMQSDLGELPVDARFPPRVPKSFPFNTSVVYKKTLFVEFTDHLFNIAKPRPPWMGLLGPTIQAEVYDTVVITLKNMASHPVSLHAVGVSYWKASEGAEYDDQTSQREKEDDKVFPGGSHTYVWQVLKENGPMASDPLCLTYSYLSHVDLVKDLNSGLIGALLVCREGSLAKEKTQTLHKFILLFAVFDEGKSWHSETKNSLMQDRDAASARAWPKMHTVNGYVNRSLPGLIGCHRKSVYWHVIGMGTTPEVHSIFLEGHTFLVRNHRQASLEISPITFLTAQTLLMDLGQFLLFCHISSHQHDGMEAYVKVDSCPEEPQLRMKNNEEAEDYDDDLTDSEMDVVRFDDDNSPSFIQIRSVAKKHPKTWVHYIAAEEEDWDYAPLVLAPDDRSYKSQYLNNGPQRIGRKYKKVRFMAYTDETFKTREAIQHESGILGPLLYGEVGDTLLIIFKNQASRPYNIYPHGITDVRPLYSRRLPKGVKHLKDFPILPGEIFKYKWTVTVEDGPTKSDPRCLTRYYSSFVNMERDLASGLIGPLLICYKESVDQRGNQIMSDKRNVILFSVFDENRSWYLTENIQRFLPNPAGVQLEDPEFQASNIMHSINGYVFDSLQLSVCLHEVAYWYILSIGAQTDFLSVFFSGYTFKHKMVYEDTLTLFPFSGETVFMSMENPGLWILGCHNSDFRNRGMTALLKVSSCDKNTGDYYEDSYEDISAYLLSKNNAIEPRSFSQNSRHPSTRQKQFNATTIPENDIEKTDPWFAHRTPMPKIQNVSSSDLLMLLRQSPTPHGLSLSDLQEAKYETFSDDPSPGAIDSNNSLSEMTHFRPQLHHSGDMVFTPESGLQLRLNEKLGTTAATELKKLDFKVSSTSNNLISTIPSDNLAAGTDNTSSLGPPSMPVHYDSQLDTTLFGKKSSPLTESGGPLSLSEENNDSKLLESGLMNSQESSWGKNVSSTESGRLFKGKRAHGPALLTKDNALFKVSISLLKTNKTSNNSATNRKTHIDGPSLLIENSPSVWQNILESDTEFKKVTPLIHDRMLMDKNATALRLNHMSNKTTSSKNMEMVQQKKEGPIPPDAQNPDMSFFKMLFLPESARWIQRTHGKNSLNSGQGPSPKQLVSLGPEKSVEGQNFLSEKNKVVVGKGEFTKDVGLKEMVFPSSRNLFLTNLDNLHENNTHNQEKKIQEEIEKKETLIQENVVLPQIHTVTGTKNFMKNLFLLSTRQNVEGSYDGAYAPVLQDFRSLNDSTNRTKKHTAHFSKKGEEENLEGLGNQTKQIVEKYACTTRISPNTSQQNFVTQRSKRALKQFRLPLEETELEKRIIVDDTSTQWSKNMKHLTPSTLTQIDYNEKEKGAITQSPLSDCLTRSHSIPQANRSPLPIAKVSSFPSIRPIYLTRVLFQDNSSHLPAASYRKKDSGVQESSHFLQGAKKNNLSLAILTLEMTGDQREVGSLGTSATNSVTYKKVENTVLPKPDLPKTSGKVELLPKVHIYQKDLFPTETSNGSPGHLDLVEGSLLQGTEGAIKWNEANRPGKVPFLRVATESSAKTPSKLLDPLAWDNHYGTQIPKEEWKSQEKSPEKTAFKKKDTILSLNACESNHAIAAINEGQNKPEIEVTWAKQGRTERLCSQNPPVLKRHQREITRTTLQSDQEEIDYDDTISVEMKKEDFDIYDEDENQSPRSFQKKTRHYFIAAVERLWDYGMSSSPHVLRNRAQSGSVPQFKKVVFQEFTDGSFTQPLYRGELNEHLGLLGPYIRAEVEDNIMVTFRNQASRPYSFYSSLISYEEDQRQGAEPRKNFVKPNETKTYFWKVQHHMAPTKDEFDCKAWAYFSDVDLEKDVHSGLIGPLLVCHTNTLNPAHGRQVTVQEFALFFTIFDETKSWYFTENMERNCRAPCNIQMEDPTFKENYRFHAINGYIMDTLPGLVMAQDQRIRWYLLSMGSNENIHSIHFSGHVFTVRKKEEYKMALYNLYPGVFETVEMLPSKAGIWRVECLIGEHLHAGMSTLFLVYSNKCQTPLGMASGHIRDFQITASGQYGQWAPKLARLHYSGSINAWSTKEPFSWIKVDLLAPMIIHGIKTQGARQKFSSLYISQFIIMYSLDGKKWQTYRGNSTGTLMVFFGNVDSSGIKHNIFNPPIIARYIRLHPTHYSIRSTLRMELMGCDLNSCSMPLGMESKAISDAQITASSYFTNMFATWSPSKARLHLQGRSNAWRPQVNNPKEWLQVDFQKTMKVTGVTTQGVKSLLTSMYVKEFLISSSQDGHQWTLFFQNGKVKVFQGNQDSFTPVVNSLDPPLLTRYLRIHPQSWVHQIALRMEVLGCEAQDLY

Kd: < 0.1 nM
B1: recombinant CLEC4M-Fc chimera (Fc fusion, human, UniProt Q9H2X3 71-399, looked up)
chain: QVSKVPSSLSQEQSEQDAIYQNLTQLKAAVGELSEKSKLQEIYQELTQLKAAVGELPEKSKLQEIYQELTRLKAAVGELPEKSKLQEIYQELTRLKAAVGELPEKSKLQEIYQELTRLKAAVGELPEKSKLQEIYQELTELKAAVGELPEKSKLQEIYQELTQLKAAVGELPDQSKQQQIYQELTDLKTAFERLCRHCPKDWTFFQGNCYFMSNSQRNWHDSVTACQEVRAQLVVIKTAEEQNFLQLQTSRSNRFSWMGLSDLNQEGTWQWVDGSPLSPSFQRYWNSGEPNNSGNEDCAEFSGSGWNDNRCDVDNYWICKKPAACFRDE
